Data taken from patent publication US20180346889, “DNA POLYMERASE VARIANT” (KYUSHU UNIVERSITY, NATIONAL UNIVERSITY CORPORATION, published 2018).

Assays:
[1] = target: T1, Taq58 (TaqLF P685S Y686R E687K) (Thermus aquaticus, UniProt P19821 SEQ:1-544); test: EMSA; apparent; shifted band from 25 nM; 20 mM Tris-HCl pH 8.8, 10 mM NaCl, 5 mM MgCl2, 40 C; conditions: label: 5'-32P on d27; primer-template, 27 bp duplex with 22 nt 5' overhang on 49N
T1 chain: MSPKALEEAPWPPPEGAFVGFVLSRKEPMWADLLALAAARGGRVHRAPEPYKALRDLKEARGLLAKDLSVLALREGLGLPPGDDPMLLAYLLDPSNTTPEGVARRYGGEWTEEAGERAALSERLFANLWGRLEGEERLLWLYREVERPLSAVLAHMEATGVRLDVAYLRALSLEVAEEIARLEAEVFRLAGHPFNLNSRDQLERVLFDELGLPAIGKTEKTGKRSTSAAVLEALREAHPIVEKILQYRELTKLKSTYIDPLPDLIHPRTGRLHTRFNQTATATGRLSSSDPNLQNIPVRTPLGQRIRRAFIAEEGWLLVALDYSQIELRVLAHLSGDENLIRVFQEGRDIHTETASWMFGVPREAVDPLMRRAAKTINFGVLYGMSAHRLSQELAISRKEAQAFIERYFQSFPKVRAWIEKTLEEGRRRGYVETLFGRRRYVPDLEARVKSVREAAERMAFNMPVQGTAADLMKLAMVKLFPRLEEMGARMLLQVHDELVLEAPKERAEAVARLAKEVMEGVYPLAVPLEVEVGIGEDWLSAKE
Procedure: (§1) The affinity of variant Taq polymerases and primed DNAs was examined using a gel shift assay. The measurement was carried out in the following manner.
(§2) First, DNA in which a 27 nt of a single-stranded DNA (d27, SEQ ID NO: 50) radioactive-labeled with ³²P at 5′-terminal was annealed to a non-labeled 49 nt of a single-stranded DNA (49N, SEQ ID NO: 51) was used as a substrate DNA for the measurement of DNA binding ability. DNA polymerase proteins were added to 10 μl of Solution E [20 mM Tris-HCl, pH 8.8, 10 mM NaCl, 5 mM MgCl₂, 14 mM 2-mercaptoethanol, 0.1 mg/ml BSA and 5% (v/v) glycerol] containing 2 nM substrate DNA so as to have concentration of from 0.6 to 400 nM, and the mixture was held at 40° C. for 5 minutes. A liquid DNA-enzyme mixture was subjected to 1% agarose gel and electrophoresed in a 0.1×TAE solution [4 mM Tris base, 2 mM acetic acid and 0.1 mM EDTA]. After the termination of electrophoresis, the gel was dried, and the dried gel was exposed to an imaging plate. Typhoon TRIO+ was used to detect a labeled DNA.

[2] = target: T2, Taq59 (TaqLF P685R Y686R E687R) (Thermus aquaticus, UniProt P19821 SEQ:1-544); test: EMSA; apparent; clear shift at 25 nM, two-step shift at 400 nM; 20 mM Tris-HCl pH 8.8, 10 mM NaCl, 5 mM MgCl2, 40 C; conditions: label: 5'-32P on d27; primer-template, 27 bp duplex with 22 nt 5' overhang on 49N
T2 chain: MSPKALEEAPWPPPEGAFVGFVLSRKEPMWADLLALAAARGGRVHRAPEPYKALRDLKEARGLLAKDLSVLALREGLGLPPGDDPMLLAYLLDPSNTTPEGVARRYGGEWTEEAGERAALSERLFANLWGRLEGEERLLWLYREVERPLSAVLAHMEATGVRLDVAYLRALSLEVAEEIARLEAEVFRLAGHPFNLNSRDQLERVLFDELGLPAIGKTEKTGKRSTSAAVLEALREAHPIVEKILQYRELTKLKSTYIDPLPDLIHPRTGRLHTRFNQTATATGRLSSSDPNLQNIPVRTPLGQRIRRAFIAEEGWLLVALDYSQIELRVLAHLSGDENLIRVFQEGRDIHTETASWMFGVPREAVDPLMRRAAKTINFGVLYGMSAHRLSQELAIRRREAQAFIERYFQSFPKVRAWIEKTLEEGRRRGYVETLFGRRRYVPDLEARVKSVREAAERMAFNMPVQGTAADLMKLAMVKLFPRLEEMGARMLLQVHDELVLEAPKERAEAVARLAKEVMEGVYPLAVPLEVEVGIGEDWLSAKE
Procedure: as §1, §2

B1: primed DNA d27/49N (dsDNA)
DNA 1: AGCTATGACCATGATTACGAATTGCTT
DNA 2: AGCTACCATGCCTGCACGAATTAAGCAATTCGTAATCATGGTCATAGCT
[1]
  Kd: 100 nM
[2]
  Kd: 40 nM
